From patent US7229755 (Dana-Farber, dated 2007) come the findings set out here.

Test [1] addresses (Gal4 binding domain)-hMsh2 fusion (pAS1-hMSH2) (human, UniProt P04386 1-147 (Saccharomyces cerevisiae entry), limits assumed). Put plainly: cell-based or functional assay.
For test [2], the target named is T1, hMsh2 protein with a hexa-HIS and factor Xa leader peptide at the N-terminus (overproduced in E. coli from a … (human, UniProt P43246 1-934)).
T1 construct: The leader peptide was not cleaved; The preparation was more than 50% pure; also called human Msh2; MSH2hu protein; not shown: hexa-HIS and factor Xa leader peptide from the pET vector derivative (Invitrogen)
Put plainly: gel-shift (supershift) of hMsh2 bound to a 32P-labelled 39-bp GT-mismatch duplex, with E. coli extract containing hMlh1. On the procedure: Mismatch binding by human mismatch repair proteins was studied using a gel-shift binding assay. Briefly, protein fractions are incubated with a ^32P-labelled 39-basepair oligonucleotide duplex that was designed to minimize intramolecular interactions (Oligo Designs), and also contained a GT mismatch at position 20. Incubations were done for 10 minutes at 23° C. in 20 mM Tris (pH 7.5), 50 mM KCl, 1 mM DTT, and 0.1 mM EDTA to allow formation of protein-DNA complexes. Several different competitor nucleic acids (e.g. poly dI-dC, an otherwise identical 39-mer that lacked the mismatch, and/or unlabelled mismatched substrate) were added to minimize nonspecific binding. Reactions were then loaded onto a 6% acrylamide gel in TBE, and were electrophoresed.

B1: (Gal4 activation domain)-hMlh1 fusion (pACTII-hMLH1) (other, not shown: large carriers)
chain: MSFVAGVIRRLDETVVNRIAAGEVIQRPANAIKEMIENCLDAKSTSIQVIVKEGGLKLIQIQDNGTGIRKEDLDIVCERFTTSKLQSFEDLASISTYGFRGEALASISHVAHVTITTKTADGKCAYRASYSDGKLKAPPKPCAGNQGTQITVEDLFYNIATRRKALKNPSEEYGKILEVVGRYSVHNAGISFSVKKQGETVADVRTLPNASTVDNIRSIFGNAVSRELIEIGCEDKTLAFKMNGYISNANYSVKKCIFLLFINHRLVESTSLRKAIETVYAAYLPKNTHPFLYLSLEISPQNVDVNVHPTKHEVHFLHEESILERVQQHIESKLLGSNSSRMYFTQTLLPGLAGPSGEMVKSTTSLTSSSTSGSSDKVYAHQMVRTDSREQKLDAFLQPLSKPLSSQPQAIVTEDKTDISSGRARQQDEEMLELPAPAEVAAKNQSLEGDTTKGTSEMSEKRGPTSSNPRKRHREDSDVEMVEDDSRKEMTAACTPRRRIINLTSVLSLQEEINEQGHEVLREMLHNHSFVGCVNPQWALAQHQTKLYLLNTTKLSEELFYQILIYDFANFGVLRLSEPAPLFDLAMLALDSPESGWTEEDGPKEGLAEYIVEFLKKKAEMLADYFSLEIDEEGNLIGLPLLIDNYVPPLEGLPIFILRLATEVNWDEEKECFESLSKECAMFYSIRKQYISEESTLSGQQSEVPGSIPNSWKWTVEHIVYKALRSHILPPKHFTEDGNILQLANLPDLYKVFERC
Turning to B1, the “β-galactosidase activity (GAL4 promoter-β-galactosidase reporter, yeast Two-Hybrid)” value in test [1] was around 100 fold.

B2: hMlh1 protein overproduced in E. coli from pET-hMLH1 constructs (used as clarified bacterial extract) (other)
chain: MSFVAGVIRRLDETVVNRIAAGEVIQRPANAIKEMIENCLDAKSTSIQVIVKEGGLKLIQIQDNGTGIRKEDLDIVCERFTTSKLQSFEDLASISTYGFRGEALASISHVAHVTITTKTADGKCAYRASYSDGKLKAPPKPCAGNQGTQITVEDLFYNIATRRKALKNPSEEYGKILEVVGRYSVHNAGISFSVKKQGETVADVRTLPNASTVDNIRSIFGNAVSRELIEIGCEDKTLAFKMNGYISNANYSVKKCIFLLFINHRLVESTSLRKAIETVYAAYLPKNTHPFLYLSLEISPQNVDVNVHPTKHEVHFLHEESILERVQQHIESKLLGSNSSRMYFTQTLLPGLAGPSGEMVKSTTSLTSSSTSGSSDKVYAHQMVRTDSREQKLDAFLQPLSKPLSSQPQAIVTEDKTDISSGRARQQDEEMLELPAPAEVAAKNQSLEGDTTKGTSEMSEKRGPTSSNPRKRHREDSDVEMVEDDSRKEMTAACTPRRRIINLTSVLSLQEEINEQGHEVLREMLHNHSFVGCVNPQWALAQHQTKLYLLNTTKLSEELFYQILIYDFANFGVLRLSEPAPLFDLAMLALDSPESGWTEEDGPKEGLAEYIVEFLKKKAEMLADYFSLEIDEEGNLIGLPLLIDNYVPPLEGLPIFILRLATEVNWDEEKECFESLSKECAMFYSIRKQYISEESTLSGQQSEVPGSIPNSWKWTVEHIVYKALRSHILPPKHFTEDGNILQLANLPDLYKVFERC
notes: The protein was not purified and was used as clarified bacterial extract; also called hMLH1 gene product
B2: in test [2], the binding result is on record as “binds”.
